Measured values: patent US12042530B2, “Target peptides for immunotherapy and diagnostics” (University of Virginia Patent Foundation, priority 2012, dated 2024)
Non-standard residues stand in square brackets, D forms with d. No end group written: not given here. pS = N[C@@H](COP(=O)(O)O)C(=O)O

Legend:
[1] = molecular target: T1, HLA-B*0702 (HLA-B7) peptide complexes (Homo sapiens, UniProt P01889); test: HLA-B*0702 phosphopeptides associated with leukemia samples (isolation of HLA-associated peptides); settings: for Copies/cell class, ALL1: acute lymphoblastic leukemia sample ALL1; for Copies/cell class, HCL1: hairy cell leukemia sample HCL1; for Copies/cell class, T Cell: healthy T cells
T1 construct: endogenous in cells; host or cells: JY B-lymphoblastoid line; primary ALL, CLL, HCL, AML samples; bone marrow; healthy B and T cells
Summary of the method: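 Class I HLA-A2 and HLA-B7 complexes were immunoaffinity-purified (BB7.2 or MEL antibodies on protein A) from CHAPS lysates of ~1.2-14×10^9 cells, using phosphatase and protease inhibitors. Sources were Ficoll-purified (>98%) CLL, MCL, ALL and AML cells, healthy splenic T/B cells and JY cells. Peptides were eluted with 10% acetic acid.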

HLA-B*0702 = molecular target: T2, HLA-B*0702 (Homo sapiens, UniProt P01889); test: Phosphopeptides presented in association with class I molecules (HLA-B*0702) on cancer cells: melanoma and/or leukemia; parameters: key: Melanoma (M); Leukemia (L); L/M: Melanoma (M) and/or Leukemia (L); settings: cancer type on which the HLA-B*0702 phosphopeptide is presented
T2 construct: endogenous in cells; host or cells: melanoma and/or leukemia cells

[2] = molecular target: T3, HLA-A*0201 (HLA-A2) peptide complexes (Homo sapiens, UniProt P04439, D140Y/D185E/D98H/E176V/E277Q/G131W/G231S/I119V/I121R/I166T/I218V/L300P/L318F/N151K/N90K/P208A/P217A/Q86G/Q94H/R138H/R169H/T345S); test: HLA-A*0201 phosphopeptides associated with leukemia samples (isolation of HLA-associated peptides); settings: for Copies/cell class, JY: EBV transformed B lymphoblastoid cell line JY; for Copies/cell class, AML1: acute myeloid leukemia sample AML1; for Copies/cell class, CLL1: chronic lymphocytic leukemia sample CLL1; for Copies/cell class, B Cell: healthy B cells; for Copies/cell class, T Cell: healthy T cells; for Copies/cell class, MCL: mantle cell lymphoma sample
T3 construct: endogenous in cells; host or cells: JY B-lymphoblastoid line; primary CLL, MCL, AML, ALL samples; healthy splenic T and B cells
Description: To identify naturally processed tumor-associated phosphopeptides, HLA-A*0201 (HLA-A2) and HLA-B*0702 (HLA-B7) peptide complexes from four (4) chronic lymphocytic leukemia (CLL) tumor samples, a mantle cell lymphoma sample (MCL), one acute lymphoblastic leukemia (ALL), and an acute myeloid leukemia (AML) sample, in addition to healthy splenic T and B-cells and the cultured lymphoblastoid cell line JY were isolated. These efforts yielded 10 HLA-A2-restricted and 86 HLA-B7-restricted phosphopeptide antigens (see Tables 6 and 7).
All cell lines were grown at 37° C. with 5% CO2 in growth medium consisting of RPMI 1640 supplemented with 10% FCS and two mM L-glutamine. Blood or leukapheresis samples were taken from patients with high-burden leukemia in heparin. Tumor cells were recovered by layering the blood over density gradient (Ficoll) and collecting the tumor layer following centrifugation. The tumor was washed in tris-buffered saline (TBS). The purity of the tumor was assessed using flow cytometry and was >98% pure in all cases. For healthy T and B-cell populations, a normal spleen sample processed and tonsil sample was collected and lymphocytes released through mechanical disruption. Mononuclear cells were isolated using a density gradient and 10^9 T cells isolated using anti-CD19 or anti-CD3 microbeads (Miltenyi Biotec Inc., Auburn, California, United States of America) with purity >98% were obtained. Bone marrow sample was obtained from an elective orthopedic procedure and red cell-depleted using hypotonic lysis. This sample was not processed further.
Class I MHC molecules were immunoaffinity purified from the JY cell line or from primary tumor samples, and their associated peptides were extracted as previously described in Zarling et al., 2006. Approximately 1.2-14×10^9 cells were lysed in a solution containing 20 mM Tris-HCl (pH 8.0), 150 mM NaCl, 1% CHAPS, one mM PMSF, five μg/mL aprotinin, 10 μg/mL leupeptin, 10 μg/mL pepstatin A, 1 μg/ml calyculin A, and phosphatase inhibitor (cocktails I and II; Sigma-Aldrich). The mixture was subjected to centrifugation and the resulting supernatant was passed over protein A sepharose pre-loaded with the HLA-A2-specific antibody BB7.2 or HLA-B7-specific antibody MEL Peptides were eluted from the purified class I MHC molecules with 10% acetic acid.

Substance | Copies/cell class, AML1 [1] | L/M (HLA-B*0702) | Copies/cell class, CLL2 [2] | Copies/cell class, CLL3 [2] | Copies/cell class, CLL4 [2] | Copies/cell class, JY [2] | Copies/cell class, AML1 [2] | Copies/cell class, CLL1 [2] | Copies/cell class, B Cell [2] | Copies/cell class, T Cell [2] | Copies/cell class, MCL [2] | also measured
371 (SPK[pS]PGLKA; listed as Homo sapiens) [compound 371] | 1 (1 indicates <1 copy/cell) | L | – | – | – | – | – | – | – | – | – | Copies/cell class, CLL2 [1]: 3 (3 indicates 6-25 copies per cell); Copies/cell class, CLL4 [1]: 3 (3 indicates 6-25 copies per cell); Copies/cell class, JY [1]: 4 (4 indicates >25 copies per cell); Copies/cell class, ALL1 [1]: 1 (1 indicates <1 copy/cell); Copies/cell class, HCL1 [1]: 2 (2 indicates 1-5 copies/cell); Copies/cell class, T Cell [1]: 1 (1 indicates <1 copy/cell); Copies/cell class, BM ([1]; healthy bone marrow): 1 (1 indicates <1 copy/cell)
374 (SPRR[pS]RSISL; listed as Homo sapiens) [compound 374] | 4 (4 indicates >25 copies per cell) | L/M | – | – | – | – | – | – | – | – | – | –
377 (SPR[pS]PGKPM; listed as Homo sapiens) [compound 377] | 2 (2 indicates 1-5 copies/cell) | L | – | – | – | – | – | – | – | – | – | Copies/cell class, CLL2 [1]: 1 (1 indicates <1 copy/cell); Copies/cell class, CLL4 [1]: 2 (2 indicates 1-5 copies/cell); Copies/cell class, JY [1]: 4 (4 indicates >25 copies per cell); Copies/cell class, ALL1 [1]: 1 (1 indicates <1 copy/cell); Copies/cell class, HCL1 [1]: 2 (2 indicates 1-5 copies/cell)
379 (SPR[pS]PSTTYL; listed as Homo sapiens) [compound 379] | 2 (2 indicates 1-5 copies/cell) | L | – | – | – | – | – | – | – | – | – | –
382 (SPS[pS]PSVRRQL; listed as Homo sapiens) [compound 382] | 2 (2 indicates 1-5 copies/cell) | L | – | – | – | – | – | – | – | – | – | Copies/cell class, B Cell ([1]; healthy B cells): 2 (2 indicates 1-5 copies/cell); Copies/cell class, T Cell [1]: 2 (2 indicates 1-5 copies/cell)
383 (SPSTSRSGG[pS]SRL; listed as Homo sapiens) [compound 383] | 1 (1 indicates <1 copy/cell) | L | – | – | – | – | – | – | – | – | – | –
385 (TPAQPQRR[pS]L; listed as Homo sapiens) [compound 385] | – | L | – | – | – | – | – | – | – | – | – | Copies/cell class, ALL1 [1]: 1 (1 indicates <1 copy/cell)
386 (TPI[pS]PGRASGM; listed as Homo sapiens) [compound 386] | – | L | – | – | – | – | – | – | – | – | – | Copies/cell class, ALL1 [1]: 1 (1 indicates <1 copy/cell)
387 (TPR[pS]PPLGL; listed as Homo sapiens) [compound 387] | 3 (3 indicates 6-25 copies per cell) | L | – | – | – | – | – | – | – | – | – | Copies/cell class, CLL2 [1]: 3 (3 indicates 6-25 copies per cell); Copies/cell class, CLL4 [1]: 2 (2 indicates 1-5 copies/cell); Copies/cell class, JY [1]: 4 (4 indicates >25 copies per cell); Copies/cell class, HCL1 [1]: 3 (3 indicates 6-25 copies per cell)
388 (TPR[pS]PPLGLI; listed as Homo sapiens) [compound 388] | 3 (3 indicates 6-25 copies per cell) | L | – | – | – | – | – | – | – | – | – | Copies/cell class, CLL2 [1]: 2 (2 indicates 1-5 copies/cell); Copies/cell class, CLL4 [1]: 2 (2 indicates 1-5 copies/cell); Copies/cell class, JY [1]: 4 (4 indicates >25 copies per cell); Copies/cell class, HCL1 [1]: 2 (2 indicates 1-5 copies/cell)
389 (VPR[pS]PKHAHSSSL; listed as Homo sapiens) [compound 389] | 1 (1 indicates <1 copy/cell) | L | – | – | – | – | – | – | – | – | – | –
391 (YQR[pS]FDEVEGV; listed as Homo sapiens) [compound 391] | 1 (1 indicates <1 copy/cell) | L | – | – | – | – | – | – | – | – | – | –
392 (YQR[pS]FDEVEGVF; listed as Homo sapiens) [compound 392] | 2 (2 indicates 1-5 copies/cell) | L | – | – | – | – | – | – | – | – | – | –
436 (KAKSPAPGL; SITE (1)..(9): One or more of the listed amino acids can be phosphorylated as set forth in the Tables; listed as Homo sapiens) [compound 436] | – | – | 1 (1 indicates <1 copy/cell) | 0 | 0 | 0 | 0 | 0 | 0 | 0 | 0 | –
440 (KLIDRTESL; SITE (1)..(9): One or more of the listed amino acids can be phosphorylated as set forth in the Tables; listed as Homo sapiens) [compound 440] | – | – | 2 (2 indicates 1-5 copies/cell) | 1 (1 indicates <1 copy/cell) | 1 (1 indicates <1 copy/cell) | 2 (2 indicates 1-5 copies/cell) | 0 | 2 (2 indicates 1-5 copies/cell) | 0 | 0 | 0 | –
444 (KMDSFLDMQL; SITE (1)..(10): One or more of the listed amino acids can be phosphorylated as set forth in the Tables; listed as Homo sapiens) [compound 444] | – | – | 0 | 0 | 1 (1 indicates <1 copy/cell) | 2 (2 indicates 1-5 copies/cell) | 0 | 0 | 0 | 0 | 0 | –
451 (RQASIELPSM; SITE (1)..(10): One or more of the listed amino acids can be phosphorylated as set forth in the Tables; listed as Homo sapiens) [compound 451] | – | – | 2 (2 indicates 1-5 copies/cell) | 1 (1 indicates <1 copy/cell) | 1 (1 indicates <1 copy/cell) | 4 (4 indicates >25 copies per cell) | 1 (1 indicates <1 copy/cell) | 2 (2 indicates 1-5 copies/cell) | 2 (2 indicates 1-5 copies/cell) | 2 (2 indicates 1-5 copies/cell) | 1 (1 indicates <1 copy/cell) | –
456 (RQLSSGVSEI; SITE (1)..(10): One or more of the listed amino acids can be phosphorylated as set forth in the Tables; listed as Homo sapiens) [compound 456] | – | – | 0 | 1 (1 indicates <1 copy/cell) | 0 | 0 | 0 | 0 | 0 | 0 | 0 | –
457 (RTFSPTYGL; SITE (1)..(9): One or more of the listed amino acids can be phosphorylated as set forth in the Tables; listed as Homo sapiens) [compound 457] | – | – | 0 | 1 (1 indicates <1 copy/cell) | 0 | 0 | 0 | 0 | 0 | 0 | 0 | –
